In patent publication US20250388669A1 (published 2025):
Positions count from the first letter of the chain named. Names and notes keep the numbering of the source.

Experiments:
CD137 = target: T1, CD137 (human, UniProt Q07011 24-186); experiment: CD137 binding, FCM or ELISA
T1 construct: In the reporter assay it is whole, on GS-H2-huCD137 cells; also called 4-1BB; huCD137

CD3 = CD3 (human); experiment: CD3 binding, as described in Example 2 (ELISA or FCM)
B7H3 [1] = target: T2, B7H3 (human, UniProt Q5ZPR3 29-466, limits assumed); experiment: ELISA or FCM (Example 2)
T2 sequence (looked up): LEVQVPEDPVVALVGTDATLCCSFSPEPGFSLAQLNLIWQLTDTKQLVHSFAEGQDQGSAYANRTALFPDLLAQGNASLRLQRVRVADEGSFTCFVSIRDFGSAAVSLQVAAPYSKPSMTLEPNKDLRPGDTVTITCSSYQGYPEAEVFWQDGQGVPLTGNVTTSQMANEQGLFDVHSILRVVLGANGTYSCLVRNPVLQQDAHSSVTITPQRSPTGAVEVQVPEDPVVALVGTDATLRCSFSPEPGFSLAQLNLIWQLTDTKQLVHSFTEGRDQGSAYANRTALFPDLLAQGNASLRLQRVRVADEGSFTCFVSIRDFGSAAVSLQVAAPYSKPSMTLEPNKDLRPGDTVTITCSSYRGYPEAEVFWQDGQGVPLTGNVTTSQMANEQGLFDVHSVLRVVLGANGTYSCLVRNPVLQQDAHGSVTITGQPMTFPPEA

B7H3 [2] = target: T3, B7H3 (UniProt Q5ZPR3 29-466, limits assumed); experiment: FCM or ELISA, graded
T3 sequence (looked up): T2 sequence (looked up)

CD40 = CD40 (UniProt P25942 21-193, limits assumed); experiment: FCM or ELISA, graded
Sequence of CD40 (P25942 21-193 limits assumed): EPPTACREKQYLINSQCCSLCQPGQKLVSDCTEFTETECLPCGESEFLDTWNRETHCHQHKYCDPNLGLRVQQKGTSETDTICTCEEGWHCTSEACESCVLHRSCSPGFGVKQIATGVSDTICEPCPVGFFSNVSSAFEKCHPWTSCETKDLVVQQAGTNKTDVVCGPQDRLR

Sequence of CD3 (human) (chain, as listed by the source): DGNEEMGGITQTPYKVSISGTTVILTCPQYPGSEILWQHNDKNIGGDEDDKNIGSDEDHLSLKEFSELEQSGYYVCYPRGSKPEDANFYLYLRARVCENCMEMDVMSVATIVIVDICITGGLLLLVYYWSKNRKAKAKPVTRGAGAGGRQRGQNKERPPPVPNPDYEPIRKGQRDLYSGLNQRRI

B1: Ly1966 (other)
chain 1: QVQLQQSGAELVRPGSSVKISCKASGYAFSSYWMNWVKQRPGQGLEWIGQIWPGDGDTNYNGKFKGKATLTADESSSTAYMQLSSLASEDSAVYFCARRETTTVGRYYYAMDYWGQGTTVTVSSASTKGPSVFPLAPSSKSTSGGTAALGCLVKDYFPEPVTVSWNSGALTSGVHTFPAVLQSSGLYSLSSVVTVPSSSLGTQTYICNVNHKPSNTKVDKKVEPKSCGGGGSGGGGSGGGGSGGGGSEVQLVESGGGLVQPGGSLRLSCAASGFTFSTYAMNWVRQAPGKGLEWVGRIRSKYNNYATYYADSVKGRFTISRDDSKNSLYLQMNSLKTEDTAVYYCVRHGNFGNSYVSWFAYWGQGTLVTVSSGGGGSDKTHTCPPCPAPEAAGPSVFLFPPKPKDTLMISRTPEVTCVVVDVSHEDPEVKFNWYVDGVEVHNAKTKPREEQYNSTYRVVSVLTVLHQDWLNGKEYKCKVSNKALPAPIEKTISKAKGQPREPQVYTLPPSREEMTKNQVSLWCLVKGFYPSDIAVEWESNGQPENNYKTTPPVLDSDGSFFLYSKLTVDKSRWQQGNVFSCSVMHEALHNHYTQKSLSLSPGGGGGSGGGGSGGGGSGGGGSQVQLVQSGAEVKKPGASVKVSCKASGYTFAGFEMHWVRQAPGQGLEWMGAIDPKTGGTDYNQKFKDRVTMTRDTSISTAYMELSRLRSDDTAVYYCARDLGYFDVWGQGTLVTVSS
chain 2: QVQLQQSGAELVRPGSSVKISCKASGYAFSSYWMNWVKQRPGQGLEWIGQIWPGDGDTNYNGKFKGKATLTADESSSTAYMQLSSLASEDSAVYFCARRETTTVGRYYYAMDYWGQGTTVTVSSASTKGPSVFPLAPSSKSTSGGTAALGCLVKDYFPEPVTVSWNSGALTSGVHTFPAVLQSSGLYSLSSVVTVPSSSLGTQTYICNVNHKPSNTKVDKKVEPKSCGGGGSGGGGSGGGGSGGGGSQAVVTQEPSLTVSPGGTVTLTCRSSTGAVTTSNYANWVQQKPGQAPRGLIGGTNKRAPWTPARFSGSLLGGKAALTITGAQAEDEADYYCALWYSNLWVFGGGTKLTVLGGGGSDKTHTCPPCPAPEAAGPSVFLFPPKPKDTLMISRTPEVTCVVVDVSHEDPEVKFNWYVDGVEVHNAKTKPREEQYNSTYRVVSVLTVLHQDWLNGKEYKCKVSNKALPAPIEKTISKAKGQPREPQVYTLPPSREEMTKNQVSLSCAVKGFYPSDIAVEWESNGQPENNYKTTPPVLDSDGSFFLVSKLTVDKSRWQQGNVFSCSVMHEALHNRFTQKSLSLSPGGGGGSGGGGSGGGGSGGGGSDIQMTQSPSSLSASVGDRVTITCRASQDIRSNLNWYQQKPGGAVKLLIYYTSRLHSGVPSRFSGSGSGTDYTLTISSLQPEDFATYFCQQSEKLPRTFGGGTKVEIR
light: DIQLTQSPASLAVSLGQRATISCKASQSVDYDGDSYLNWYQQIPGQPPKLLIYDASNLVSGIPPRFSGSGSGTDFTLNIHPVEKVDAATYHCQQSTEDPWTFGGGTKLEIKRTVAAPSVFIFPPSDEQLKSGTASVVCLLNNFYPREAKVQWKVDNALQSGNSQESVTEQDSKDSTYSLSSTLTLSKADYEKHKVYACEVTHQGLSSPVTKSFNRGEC
notes: Tri-specific antibody: CD19 Fabs, central CD3 Fv, terminal CD137 Fv
For B1, the binding result (CD137) was “binds” and the EC50 (CD3) was 0.348 µg/mL.

B2: Ly1967 (other)
chain 1: B1 chain 1
chain 2: B1 chain 2 with R575H, F576Y
light: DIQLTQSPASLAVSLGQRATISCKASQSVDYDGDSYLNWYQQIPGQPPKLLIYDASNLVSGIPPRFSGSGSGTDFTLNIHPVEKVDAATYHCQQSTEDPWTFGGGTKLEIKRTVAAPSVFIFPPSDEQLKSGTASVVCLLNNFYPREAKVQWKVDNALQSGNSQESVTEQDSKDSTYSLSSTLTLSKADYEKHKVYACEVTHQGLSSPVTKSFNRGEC
notes: as for B1
For B2, the binding result (CD137) was “binds” and the EC50 (CD3) was 1.56 µg/mL.

B3: Ly2326 (bispecific antibody, human IgG1, kappa)
chain 1: QVQLQQSGAELVRPGSSVKISCKASGYAFSSYWMNWVKQRPGQGLEWIGQIWPGDGDTNYNGKFKGKATLTADESSSTAYMQLSSLASEDSAVYFCARRETTTVGRYYYAMDYWGQGTTVTVSSASTKGPSVFPLAPSSKSTSGGTAALGCLVKDYFPEPVTVSWNSGALTSGVHTFPAVLQSSGLYSLSSVVTVPSSSLGTQTYICNVNHKPSNTKVDKKVEPKSCDKTHTCPPCPAPEAAGPSVFLFPPKPKDTLMISRTPEVTCVVVDVSHEDPEVKFNWYVDGVEVHNAKTKPREEQYNSTYRVVSVLTVLHQDWLNGKEYKCKVSNKALPAPIEKTISKAKGQPREPQVYTLPPSREEMTKNQVSLWCLVKGFYPSDIAVEWESNGQPENNYKTTPPVLDSDGSFFLYSKLTVDKSRWQQGNVFSCSVMHEALHNHYTQKSLSLSPGGGGGSGGGGSGGGGSGGGGSQVQLVQSGAEVKKPGASVKVSCKASGYTFAGFEMHWVRQAPGQGLEWMGAIDPKTGGTDYNQKFKDRVTMTRDTSISTAYMELSRLRSDDTAVYYCARDLGYFDVWGQGTLVTVSS
chain 2: QVQLQQSGAELVRPGSSVKISCKASGYAFSSYWMNWVKQRPGQGLEWIGQIWPGDGDTNYNGKFKGKATLTADESSSTAYMQLSSLASEDSAVYFCARRETTTVGRYYYAMDYWGQGTTVTVSSASTKGPSVFPLAPSSKSTSGGTAALGCLVKDYFPEPVTVSWNSGALTSGVHTFPAVLQSSGLYSLSSVVTVPSSSLGTQTYICNVNHKPSNTKVDKKVEPKSCDKTHTCPPCPAPEAAGPSVFLFPPKPKDTLMISRTPEVTCVVVDVSHEDPEVKFNWYVDGVEVHNAKTKPREEQYNSTYRVVSVLTVLHQDWLNGKEYKCKVSNKALPAPIEKTISKAKGQPREPQVYTLPPSREEMTKNQVSLSCAVKGFYPSDIAVEWESNGQPENNYKTTPPVLDSDGSFFLVSKLTVDKSRWQQGNVFSCSVMHEALHNRFTQKSLSLSPGGGGGSGGGGSGGGGSGGGGSDIQMTQSPSSLSASVGDRVTITCRASQDIRSNLNWYQQKPGGAVKLLIYYTSRLHSGVPSRFSGSGSGTDYTLTISSLQPEDFATYFCQQSEKLPRTFGGGTKVEIR
light: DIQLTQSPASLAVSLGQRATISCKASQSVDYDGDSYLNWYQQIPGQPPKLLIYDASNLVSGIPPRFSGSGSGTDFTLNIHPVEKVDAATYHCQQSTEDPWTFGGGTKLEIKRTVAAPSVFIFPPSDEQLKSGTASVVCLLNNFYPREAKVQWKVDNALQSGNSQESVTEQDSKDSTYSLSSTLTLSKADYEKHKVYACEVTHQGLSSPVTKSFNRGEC
notes: CD19 Fabs, terminal CD137 Fv
B3: binds (CD137).

B4: Ly1963 (other)
chain 1: QVQLVQSGAEVKKPGASVKVSCKASGYTFTSYVMHWVRQKPGQGLEWIGYINPYNEGTESTDKFKGRATMTSDKSTSTVYMELSSLRSEDTAVYYCASIYYGYEGTYFGVWGQGTLVTVSSASTKGPSVFPLAPSSKSTSGGTAALGCLVKDYFPEPVTVSWNSGALTSGVHTFPAVLQSSGLYSLSSVVTVPSSSLGTQTYICNVNHKPSNTKVDKKVEPKSCGGGGSGGGGSGGGGSGGGGSEVQLVESGGGLVQPGGSLRLSCAASGFTFSTYAMNWVRQAPGKGLEWVGRIRSKYNNYATYYADSVKGRFTISRDDSKNSLYLQMNSLKTEDTAVYYCVRHGNFGNSYVSWFAYWGQGTLVTVSSGGGGSDKTHTCPPCPAPEAAGPSVFLFPPKPKDTLMISRTPEVTCVVVDVSHEDPEVKFNWYVDGVEVHNAKTKPREEQYNSTYRVVSVLTVLHQDWLNGKEYKCKVSNKALPAPIEKTISKAKGQPREPQVYTLPPSREEMTKNQVSLWCLVKGFYPSDIAVEWESNGQPENNYKTTPPVLDSDGSFFLYSKLTVDKSRWQQGNVFSCSVMHEALHNHYTQKSLSLSPGGGGGSGGGGSGGGGSGGGGSQVQLVQSGAEVKKPGASVKVSCKASGYTFAGFEMHWVRQAPGQGLEWMGAIDPKTGGTDYNQKFKDRVTMTRDTSISTAYMELSRLRSDDTAVYYCARDLGYFDVWGQGTLVTVSS
chain 2: QVQLVQSGAEVKKPGASVKVSCKASGYTFTSYVMHWVRQKPGQGLEWIGYINPYNEGTESTDKFKGRATMTSDKSTSTVYMELSSLRSEDTAVYYCASIYYGYEGTYFGVWGQGTLVTVSSASTKGPSVFPLAPSSKSTSGGTAALGCLVKDYFPEPVTVSWNSGALTSGVHTFPAVLQSSGLYSLSSVVTVPSSSLGTQTYICNVNHKPSNTKVDKKVEPKSCGGGGSGGGGSGGGGSGGGGSQAVVTQEPSLTVSPGGTVTLTCRSSTGAVTTSNYANWVQQKPGQAPRGLIGGTNKRAPWTPARFSGSLLGGKAALTITGAQAEDEADYYCALWYSNLWVFGGGTKLTVLGGGGSDKTHTCPPCPAPEAAGPSVFLFPPKPKDTLMISRTPEVTCVVVDVSHEDPEVKFNWYVDGVEVHNAKTKPREEQYNSTYRVVSVLTVLHQDWLNGKEYKCKVSNKALPAPIEKTISKAKGQPREPQVYTLPPSREEMTKNQVSLSCAVKGFYPSDIAVEWESNGQPENNYKTTPPVLDSDGSFFLVSKLTVDKSRWQQGNVFSCSVMHEALHNHYTQKSLSLSPGGGGGSGGGGSGGGGSGGGGSDIQMTQSPSSLSASVGDRVTITCRASQDIRSNLNWYQQKPGGAVKLLIYYTSRLHSGVPSRFSGSGSGTDYTLTISSLQPEDFATYFCQQSEKLPRTFGGGTKVEIR
light: EIVLTQSPATLSLSPGERATLSCRASSSVSYMHWYQQKPGQAPRPWIYATSNLASGIPARFSGSRSGTDYTLTISSLEPEDFAVYYCQQWSSNTLTFGGGTKVEIKRTVAAPSVFIFPPSDEQLKSGTASVVCLLNNFYPREAKVQWKVDNALQSGNSQESVTEQDSKDSTYSLSSTLTLSKADYEKHKVYACEVTHQGLSSPVTKSFNRGEC
notes: Tri-specific antibody: B7H3 Fabs, central CD3 Fv, terminal CD137 Fv; Flexible linker is (G4S)4
B4 was tested, and the binding result (CD137) was “binds”, the binding result (B7H3 [1]) was “binds” and the EC50 (CD3) was 0.74 µg/mL.

B5: Ly2279 (bispecific antibody)
heavy 1: not shown
heavy 2: QVQLVQSGAEVKKPGASVKVSCKASGYTFTSYVMHWVRQKPGQGLEWIGYINPYNEGTESTDKFKGRATMTSDKSTSTVYMELSSLRSEDTAVYYCASIYYGYEGTYFGVWGQGTLVTVSSASTKGPSVFPLAPSSKSTSGGTAALGCLVKDYFPEPVTVSWNSGALTSGVHTFPAVLQSSGLYSLSSVVTVPSSSLGTQTYICNVNHKPSNTKVDKKVEPKSCGGGGSGGGGSGGGGSGGGGSDIQMTQSPSSVSASVGDRVTITCRASQGIYSWLAWYQQKPGKAPNLLIYTASTLQSGVPSRFSGSGSGTDFTLTISSLQPEDFATYYCQQANIFPLTFGGGTKVEIKGGGGSDKTHTCPPCPAPEAAGPSVFLFPPKPKDTLMISRTPEVTCVVVDVSHEDPEVKFNWYVDGVEVHNAKTKPREEQYNSTYRVVSVLTVLHQDWLNGKEYKCKVSNKALPAPIEKTISKAKGQPREPQVYTLPPSREEMTKNQVSLSCAVKGFYPSDIAVEWESNGQPENNYKTTPPVLDSDGSFFLVSKLTVDKSRWQQGNVFSCSVMHEALHNRFTQKSLSLSPG
light: B4 light
notes: B7H3 Fabs x central CD40 Fv (TM383)
B5: binds (B7H3 [2]).

B6: TM559 (antibody, V domains shown)
VH: EVQLVESGGGLVQPGGSLRLSCAASGFTFTNYGLHWVRQAPGKGLEWVSSISPSGGVTYYRDSVKGRFTISRDNSKNTLYLQMNSLRAEDTAVYYCAKPFLGWGGANWIAHWGQGTLVTVSS
VL: DIQMTQSPSSLSASVGDRVTITCLASEDISNDLAWYQQKPGKAPKLLIYFVDRLLDGVPSRFSGSGSGTDFTLTISSLQPEDFATYYCQQSYKYPPTFGQGTKLEIK
notes: Parent mAb; also called Anti-CD40 TM559
B6: binds (CD40).
